From article PMC4585926, “A RANKL mutant used as an inter-species vaccine for efficient immunotherapy of osteoporosis” (Scientific Reports, 2015)
Numbering of substitutions follows the chain as printed. Blank lines part the entries; values can stand above or below the binder they belong to.

How the values were obtained:
[1] = target: T1, mouse RANK extracellular domain (mouse, UniProt O35305 31-214); test: SPR; Biacore 3000; NTA sensor chip charged with 0.3 M NiSO4, mRANK (50 nM, 15 ul) loaded; hRANKL or mutants injected at 0, 0.47, 0.94, 1.88, 3.75, 7.5, 15 and 30 nM; BIAevaluation 4.1; conditions: both partners purified
T1 construct: RANK, mouse, extracellular domain (plasmid pET28a-mRANK); also called mRANK; mRANK ectodomain; source: plasmid pET28a-mRANK
T1 sequence (looked up): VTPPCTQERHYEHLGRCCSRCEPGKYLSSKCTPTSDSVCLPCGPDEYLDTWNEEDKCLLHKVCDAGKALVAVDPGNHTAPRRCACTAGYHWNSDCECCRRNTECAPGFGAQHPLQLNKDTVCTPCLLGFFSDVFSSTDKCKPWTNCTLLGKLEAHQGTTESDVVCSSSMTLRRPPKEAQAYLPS

[2] = target: T2, human RANKL ectodomain (residues 158-317) Arg223Ala plus Asp300Ala (human, UniProt O14788 158-317, Arg223Ala | Asp300Ala); test: SPR
T2 sequence: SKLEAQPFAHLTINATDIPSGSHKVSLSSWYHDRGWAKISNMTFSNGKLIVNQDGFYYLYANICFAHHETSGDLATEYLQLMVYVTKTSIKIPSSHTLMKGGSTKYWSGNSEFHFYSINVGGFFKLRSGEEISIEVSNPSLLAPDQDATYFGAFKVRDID

[3] = target: T3, human RANKL ectodomain (residues 158-317) Arg223Ala (human, UniProt O14788 158-317, Arg223Ala); test: SPR
T3 sequence: T2 sequence with A143D

[4] = target: T4, human RANKL ectodomain (residues 158-317) Asp300Ala (human, UniProt O14788 158-317, Asp300Ala); test: SPR
T4 sequence: T2 sequence with A66R

[5] = target: the molecule itself; test: crystal structure; hRANKL and mRANK mixed 1:1 in 0.1 M Tris pH 7.0, 10 mg/mL; sitting drop at 294 K, microseeded with crushed mRANKL-mRANK crystals; 2.8 Å, space group P63
[6] = target: the molecule itself; test: cross-linking; DSS to protein 0:1, 5:1, 10:1 and 20:1, in PBS pH 7.3, on ice 1 hour, stopped with 50 mM Tris pH 7.5; SDS-PAGE

- Kd [1]: 0.068 nM
B1: mouse RANKL (ligand)
chain: KPEAQPFAHLTINAASIPSGSHKVTLSSWYHDRGWAKISNMTLSNGKLRVNQDGFYYLYANICFRHHETSGSVPTDYLQLMVYVVKTSIKIPSSHNLMKGGSTKNWSGNSEFHFYSINVGGFFKLRAGEEISIQVSNPSLLDPDQDATYFGAFKVQDID
notes: RANKL, mouse; the text names the ectodomain in general as residues 161-316 of mRANKL; also called mRANKL

- Kd [2]: 39.4 nM
- Kd [3]: 10.7 nM
- Kd [4]: 2.15 nM
B2: mouse RANK extracellular domain (receptor)
chain: T1 sequence (looked up)

The remaining lines, values behind:

B3: human RANKL ectodomain (residues 158-317), wild type (ligand, UniProt O14788 158-317, looked up)
chain: T2 sequence with A66R, A143D
notes: RANKL, human, ectodomain, residues 158-317 (plasmid pGEX-6P-hRANKL); Homotrimer in the crystal structure; also called hRANKL; wild-type hRANKL; source: E. coli BL21, purified (glutathione-Sepharose, PreScission cleavage, Superdex 200); not shown: GST, N-terminal, cleaved
- stoichiometry N [5]: 3
- Kd [1]: 0.156 nM

B4: human RANKL ectodomain (residues 158-317) Arg223Ala plus Asp300Ala (ligand, UniProt O14788 158-317, looked up)
chain: T2 sequence
notes: RANKL, human, ectodomain, residues 158-317, with Arg223Ala and Asp300Ala (mutant of pGEX-6P-hRANKL); Trimeric by chemical cross-linking; also called hRANKL double-site mutant; source: E. coli BL21, purified (glutathione-Sepharose, PreScission cleavage, Superdex 200); not shown: GST, N-terminal, cleaved
- stoichiometry N [6]: 3
- fold decrease in affinity against wild-type hRANKL [1]: 260 fold

B5: human RANKL ectodomain (residues 158-317) Asp300Ala (ligand, UniProt O14788 158-317, looked up)
chain: T2 sequence with A66R
notes: RANKL, human, ectodomain, residues 158-317, with Asp300Ala (mutant of pGEX-6P-hRANKL); also called 300 M; source: E. coli BL21, purified (glutathione-Sepharose, PreScission cleavage, Superdex 200); not shown: GST, N-terminal, cleaved
- fold decrease in affinity against wild-type hRANKL [1]: 70 fold

B6: human RANKL ectodomain (residues 158-317) Arg223Ala (ligand, UniProt O14788 158-317, looked up)
chain: T2 sequence with A143D
notes: RANKL, human, ectodomain, residues 158-317, with Arg223Ala (mutant of pGEX-6P-hRANKL); source: E. coli BL21, purified (glutathione-Sepharose, PreScission cleavage, Superdex 200); not shown: GST, N-terminal, cleaved
- fold decrease in affinity against wild-type hRANKL [1]: 20 fold
